Measured values as given in patent US20220153864A1 (Pieris, published 2022).

Assays:
[1] = target: T1, human GPC3 expressed on cells (SK-Hep1::huGPC3; HepG2, Hep3B and MKN-45 tumor cells) (human, UniProt P51654 25-554); assay: flow cytometry, SK-Hep1 cells transfected with human GPC3, detection labelled anti-human IgG, GeoMean RL1-H [upper graph]
T1 construct: whole, on cells; also called GPC3-positive tumor cells; human GPC3-expressing cells
Method: For flow cytometric analysis, respective cell lines were incubated with an exemplary fusion protein (SEQ ID NOs: 87 and 82), the GPC3 antibody or the CD137 specific lipocalin mutein (Fc fusion) as included in the fusion protein (SEQ ID NOs: 81 and 82 and SEQ ID NO: 98, respectively), a reference CD137 antibody SEQ ID NOs: 26 and 27, or an isotype control (SEQ ID NOs: 24 and 25) and detected using a fluorescently labeled anti-human IgG antibody in FACS analysis as described in the following:
5×10⁴ cells per well were incubated for 1 h in ice-cold PBS containing 5% fetal calf serum (PBS-FCS). A dilution series of the testing molecule were added to the cells and incubated for 1 h on ice. Cells were washed twice with PBS and then incubated with a goat anti-hlgG Alexa647-labeled antibody or goat anti-hlgG Alexa488-labeled antibody for 30 min on ice. Cells were subsequently washed and analyzed using iQue Flow cytometer (Intellicyte Screener). Mean geometric fluorescent signals were plotted and fitted with Graphpad software. The geometric means of the fluorescence intensity were used to calculate EC₅₀ values using a four-parameter logistic regression with bottom fixed to background.

[2] = target: recombinant cynomolgus GPC3 (cyGPC3) (R&D Systems) (cynomolgus, UniProt A0A2K5VK50 24-558); assay: ELISA, cyGPC3 coated
Method: Recombinant huGPC3 (R&D Systems) at the concentration of 1 μg/mL in PBS was coated overnight on microtiter plates at 4° C. After five washes with 100 μL PBS-0.05% T (PBS supplemented with 0.05% (v/v) Tween 20), the plates were blocked with 2% BSA (w/v) in PBS-0.1% T (PBS-0.1% T-2% BSA) for 1 h at room temperature. After washing with 100 μL PBS-0.05% T (PBS supplemented with 0.05% (v/v) Tween 20) five times, exemplary fusion proteins (SEQ ID NOs: 87 and […] and CD137Ac1-Fusion 1 to 7) or the GPC3 antibody as include in the fusion proteins (SEQ ID NOs: 81 and 82) at different concentrations were added to the wells and incubated for 1 h at room temperature, followed by another wash step. Bound molecules under study were detected by incubation with 1:5000 diluted anti-human IgG Fc-HRP (Jackson Laboratory) in PBS-0.1% T-2% BSA. After an additional wash step, fluorogenic HRP substrate (QuantaBlu, Thermo) was added to each well and the fluorescence intensity was detected using a fluorescence microplate reader.
The same ELISA setup was also employed to determine the binding potency of fusion proteins to cynomolgus GPC3 and huCD137, where recombinant cyGPC3 (R&D Systems) or huCD137-His (recombinant human CD137 with C-terminal polyhistidine tag, R&D Systems) was instead coated on a microtiter plate. The testing agents were similarly titrated and bound agents were detected via anti-NGAL-HRP. […]

[3] = target: T2, recombinant human GPC3 (huGPC3) (R&D Systems) (human, UniProt P51654 25-559); assay: SPR (Biacore T200), binder captured by anti-human IgG Fc, huGPC3 as analyte, 1:1 model
T2 construct: also called biotinylated huGPC3
T2 sequence (P51654 25-559 limits assumed): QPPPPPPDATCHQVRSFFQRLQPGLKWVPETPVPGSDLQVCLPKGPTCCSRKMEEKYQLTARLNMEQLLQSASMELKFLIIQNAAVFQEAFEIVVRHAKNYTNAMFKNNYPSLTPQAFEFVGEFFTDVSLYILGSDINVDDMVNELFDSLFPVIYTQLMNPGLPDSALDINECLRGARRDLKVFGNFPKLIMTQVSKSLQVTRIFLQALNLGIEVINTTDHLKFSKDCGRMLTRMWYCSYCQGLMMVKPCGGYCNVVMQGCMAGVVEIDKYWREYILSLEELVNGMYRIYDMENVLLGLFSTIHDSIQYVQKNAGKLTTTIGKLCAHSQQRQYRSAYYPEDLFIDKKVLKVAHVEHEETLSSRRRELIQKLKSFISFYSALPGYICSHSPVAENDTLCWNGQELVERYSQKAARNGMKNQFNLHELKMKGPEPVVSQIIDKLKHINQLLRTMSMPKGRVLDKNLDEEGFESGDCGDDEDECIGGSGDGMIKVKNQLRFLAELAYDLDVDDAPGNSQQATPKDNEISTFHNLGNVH
Method: The anti-human IgG Fc antibody (GE Healthcare) was immobilized on a CM5 sensor chip using standard amine chemistry: the carboxyl groups on the chip were activated using 1-ethyl-3-(3-dimethylaminopropyl)-carbodiimide (EDC) and N-hydroxysuccinimide (NHS). Subsequently, anti-human IgG Fc antibody solution (GE Healthcare) at a concentration of 25 μg/mL in 10 mM sodium acetate (pH 5.0) was applied at a flow rate of 5 μL/min until an immobilization level of 6000-10000 resonance units (RU) was achieved. Residual non-reacted NHS-esters were blocked by passing a solution of 1M ethanolamine across the surface. The reference channel was treated in an analogous manner. Subsequently, testing fusion proteins (SEQ ID NOs: 87 and 82 and CD137Ac1-Fusion 1) or the GPC3 antibody as included in the fusion protein (SEQ ID NOs: 81 and 82) at 0.2 μg/ml in HBS-EP+ buffer was captured by the anti-human IgG-Fc antibody at the chip surface for 180 s at a flow rate of 10 μL/min. After each capture step, the needle was washed.
The binding assay was carried out with a contact time of 180 s, a dissociation time of 900 s, and a flow rate of 30 μL/min. After each injection, the needle was cleaned with 40 mM NaOH+20% isopropanol. All measurements were performed at 25° C. […] Prior to the protein measurements, three startup cycles were performed for conditioning purposes. Data were evaluated with Biacore T200 Evaluation software (v2.0). Double referencing was used and the 1:1 binding model was used to fit the raw data.

T1 sequence (P51654 25-554 limits assumed): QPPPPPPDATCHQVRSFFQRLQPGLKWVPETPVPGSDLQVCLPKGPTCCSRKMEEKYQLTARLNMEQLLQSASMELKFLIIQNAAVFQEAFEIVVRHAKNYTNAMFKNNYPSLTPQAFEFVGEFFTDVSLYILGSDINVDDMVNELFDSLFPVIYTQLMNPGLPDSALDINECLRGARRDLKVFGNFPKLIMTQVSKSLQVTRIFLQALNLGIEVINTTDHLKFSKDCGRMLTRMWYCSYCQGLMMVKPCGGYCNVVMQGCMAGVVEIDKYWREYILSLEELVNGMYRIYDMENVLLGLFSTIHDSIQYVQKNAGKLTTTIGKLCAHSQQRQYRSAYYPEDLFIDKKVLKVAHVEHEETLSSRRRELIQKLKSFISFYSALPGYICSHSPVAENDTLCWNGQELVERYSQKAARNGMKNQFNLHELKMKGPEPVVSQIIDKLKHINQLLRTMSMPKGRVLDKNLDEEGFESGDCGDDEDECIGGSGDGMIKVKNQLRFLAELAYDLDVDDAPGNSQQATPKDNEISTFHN

EC50 (read off the curve) [1]: ~5 nM
EC50 [2]: 0.34 nM
Kd [3]: 0.657 nM
koff [3]: 0.000269 s⁻¹
kon [3]: 409000 M⁻¹ s⁻¹
B1: fusion protein SEQ ID NOs: 87 and 82 (bispecific antibody, human IgG4 S228P, kappa, F234A L235A)
heavy: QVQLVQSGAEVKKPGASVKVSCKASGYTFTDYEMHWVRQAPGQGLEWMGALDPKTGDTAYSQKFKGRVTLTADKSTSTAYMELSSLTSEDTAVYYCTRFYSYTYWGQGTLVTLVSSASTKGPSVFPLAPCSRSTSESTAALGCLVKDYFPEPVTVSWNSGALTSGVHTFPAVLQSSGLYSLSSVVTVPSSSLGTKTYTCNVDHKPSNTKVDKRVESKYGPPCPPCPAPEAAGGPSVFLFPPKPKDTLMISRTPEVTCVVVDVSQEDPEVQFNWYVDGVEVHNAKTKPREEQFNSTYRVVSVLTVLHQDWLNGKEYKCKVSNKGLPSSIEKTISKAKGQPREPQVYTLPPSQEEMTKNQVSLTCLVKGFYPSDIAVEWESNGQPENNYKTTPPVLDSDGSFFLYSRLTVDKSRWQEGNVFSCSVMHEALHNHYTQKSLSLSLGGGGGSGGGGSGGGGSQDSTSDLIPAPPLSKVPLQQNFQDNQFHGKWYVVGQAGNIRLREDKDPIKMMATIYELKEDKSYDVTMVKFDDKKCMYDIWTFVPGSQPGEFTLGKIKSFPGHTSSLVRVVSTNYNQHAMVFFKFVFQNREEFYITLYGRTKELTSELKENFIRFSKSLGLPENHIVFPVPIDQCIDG
light: DVVMTQSPLSLPVTPGEPASISCRSSQSLVHSNRNTYLHWYLQKPGQSPQLLIYKVSNRFSGVPDRFSGSGSGTDFTLKISRVEAEDVGVYYCSQNTHVPPTFGQGTKLEIKRTVAAPSVFIFPPSDEQLKSGTASVVCLLNNFYPREAKVQWKVDNALQSGNSQESVTEQDSKDSTYSLSSTLTLSKADYEKHKVYACEVTHQGLSSPVTKSFNRGEC
notes: also called exemplary fusion protein
